# In IntAct's records for PubMed 26258637:
# B1: Rab-3A-interacting protein (Homo sapiens), Q96QF0-2 (parent)
# chain: MANDPLEGFHEVNLASPTSPDLLGVYESGTQEQTTSPSVIYRPHPSALSSVPIQANALDVSELPTQPVYSSPRRLNCAEISSISFHVTDPAPCSTSGVTAGLTKLTTRKDNYNAEREFLQGATITEACDGSDDIFGLSTDSLSRLRSPSVLEVREKGYERLKEELAKAQRELKLKDEECERLSKVRDQLGQELEELTASLFEEAHKMVREANIKQATAEKQLKEAQGKIDVLQAEVAALKTLVLSSSPTSPTQEPLPGGKTPFKKGHTRNKSTSSAMSGSHQDLSVIQPIVKDCKEADLSLYNEFRLWKDEPTMDRTCPFLDKIYQEDIFPCLTFSKSELASAVLEAVENNTLSIEPVGLQPIRFVKASAVECGGPKKCALTGQSKSCKHRIKLGDSSNYYYISPFCRYRITSVCNFFTYIRYIQQGLVKQQDVDQMFWEVMQLRKEMSLAKLGYFKEEL
# B2: Ras-related protein Rab-11A (Homo sapiens), P62491 (parent)
# chain: MGTRDDEYDYLFKVVLIGDSGVGKSNLLSRFTRNEFNLESKSTIGVEFATRSIQVDGKTIKAQIWDTAGQERYRAITSAYYRGAVGALLVYDIAKHLTYENVERWLKELRDHADSNIVIMLVGNKSDLRHLRAVPTDEARAFAEKNGLSFIETSALDSTNVEAAFQTILTEIYRIVSQKQMSDRRENDMSPSNNVVPIHVPPTTENKPKVQCCQNI
# partner: B1 chain
# Variants of: B1
# Conditions: with rb11a_human RAB11A
row,effect of a mutation on the interaction,Variant
1,decreasing interaction strength,MANDPLEGFHEVNLASPTSPDLLGVYESGTQEQTTSPSVIYRPHPSALSSVPIQANALDVSELPTQPVYSSPRRLNCAEISSISFHVTDPAPCSTSGVTAGLTKLTTRKDNYNAEREFLQGATITEACDGSDDIFGLSTDSLSRLRSPSVLEVREKGYERLKEELAKAQRELKLKDEECERLSKVRDQLGQELEELTASLFEEAHKMVREANIKQATAEKQLKEAQGKIDVLQAEVAALKTLVLSSSPTSPTQEPLPGGKTPFKKGHTRNKSTSSAMSGSHQDLSVIQPIVKDCKEADLSLYNEFRLWKDEPTMDRTCPFLDKIYQEDIFPCLTFSKSELASAVLEAVENNTLSIEPVGLQPIRFVKASAVECGGPKKCALTGQSKSCKHRIKLGDSSNYYYISPFCRYRITSVCNFFAYIRAIQQGAVKQQDVDQMFWEVMQLRKEMSLAKLGYFKEEL [T419A;Y423A;L428A]

# Variants of: B2
# Conditions: with RAB3IP
row,effect of a mutation on the interaction,Variant
1,disrupting interaction strength,MGTRDDEYDYLFKVVLIGDSGVGKNNLLSRFTRNEFNLESKSTIGVEFATRSIQVDGKTIKAQIWDTAGQERYRAITSAYYRGAVGALLVYDIAKHLTYENVERWLKELRDHADSNIVIMLVGNKSDLRHLRAVPTDEARAFAEKNGLSFIETSALDSTNVEAAFQTILTEIYRIVSQKQMSDRRENDMSPSNNVVPIHVPPTTENKPKVQCCQNI [S25N]
